Results: publication PMC10104474 (Science Advances, 2023)

B1: MBP-Cit1(Δ1–37) (enzyme, S. cerevisiae, UniProt P00890 38-479, looked up)
chain: SSASEQTLKERFAEIIPAKAEEIKKFKKEHGKTVIGEVLLEQAYGGMRGIKGLVWEGSVLDPEEGIRFRGRTIPEIQRELPKAEGSTEPLPEALFWLLLTGEIPTDAQVKALSADLAARSEIPEHVIQLLDSLPKDLHPMAQFSIAVTALESESKFAKAYAQGVSKKEYWSYTFEDSLDLLGKLPVIASKIYRNVFKDGKITSTDPNADYGKNLAQLLGYENKDFIDLMRLYLTIHSDHEGGNVSAHTTHLVGSALSSPYLSLAAGLNGLAGPLHGRANQEVLEWLFKLREEVKGDYSKETIEKYLWDTLNAGRVVPGYGHAVLRKTDPRYTAQREFALKHFPDYELFKLVSTIYEVAPGVLTKHGKTKNPWPNVDSHSGVLLQYYGLTEASFYTVLFGVARAIGVLPQLIIDRAVGAPIERPKSFSTEKYKELVKKIESKN
B2: Cit2 (full-length, HisSUMO1-tag cleaved) (enzyme, S. cerevisiae, UniProt P08679 1-460, looked up)
chain: MTVPYLNSNRNVASYLQSNSSQEKTLKERFSEIYPIHAQDVRQFVKEHGKTKISDVLLEQVYGGMRGIPGSVWEGSVLDPEDGIRFRGRTIADIQKDLPKAKGSSQPLPEALFWLLLTGEVPTQAQVENLSADLMSRSELPSHVVQLLDNLPKDLHPMAQFSIAVTALESESKFAKAYAQGISKQDYWSYTFEDSLDLLGKLPVIAAKIYRNVFKDGKMGEVDPNADYAKNLVNLIGSKDEDFVDLMRLYLTIHSDHEGGNVSAHTSHLVGSALSSPYLSLASGLNGLAGPLHGRANQEVLEWLFALKEEVNDDYSKDTIEKYLWDTLNSGRVIPGYGHAVLRKTDPRYMAQRKFAMDHFPDYELFKLVSSIYEVAPGVLTEHGKTKNPWPNVDAHSGVLLQYYGLKESSFYTVLFGVSRAFGILAQLITDRAIGASIERPKSYSTEKYKELVKNIESKL

Columns and labels:
Ucc1-Skp1(FL) complex = Ucc1-Skp1(FL) complex (S. cerevisiae, UniProt Q05947 1-369; P52286 1-194); experiment: pull-down
crystal structure = target: the molecule itself; experiment: crystal structure

Ucc1-Skp1(FL) complex, sequence (Q05947 whole entry, chain 1 of 2): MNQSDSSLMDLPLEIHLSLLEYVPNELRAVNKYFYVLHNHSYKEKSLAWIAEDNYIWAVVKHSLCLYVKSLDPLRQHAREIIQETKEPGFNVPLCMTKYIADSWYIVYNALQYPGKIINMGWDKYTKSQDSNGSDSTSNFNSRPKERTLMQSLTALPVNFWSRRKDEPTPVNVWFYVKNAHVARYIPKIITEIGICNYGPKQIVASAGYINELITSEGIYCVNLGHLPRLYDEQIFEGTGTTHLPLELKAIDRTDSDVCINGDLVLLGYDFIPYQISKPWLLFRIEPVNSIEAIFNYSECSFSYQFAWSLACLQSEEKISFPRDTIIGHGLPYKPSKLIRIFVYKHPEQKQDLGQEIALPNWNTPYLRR
Ucc1-Skp1(FL) complex, sequence (P52286 whole entry, chain 2 of 2): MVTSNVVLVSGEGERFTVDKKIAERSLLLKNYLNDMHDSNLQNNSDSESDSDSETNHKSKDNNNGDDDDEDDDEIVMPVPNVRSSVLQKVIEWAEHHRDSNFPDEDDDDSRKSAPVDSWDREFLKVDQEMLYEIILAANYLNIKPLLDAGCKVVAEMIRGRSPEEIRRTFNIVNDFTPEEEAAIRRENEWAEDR

Binder	binding result (Ucc1-Skp1(FL) complex)	stoichiometry N (crystal structure)
B1	binds	
B2		2
